Experimental data taken from patent publication US20180002444A1 (ROCKEFELLER UNIVERSITY, published 2018).

Columns and labels:
recombinant human MERTK [1] = biological target: T1, recombinant human MERTK (human, UniProt Q12866 26-499, limits assumed); assay: biolayer interferometry, M19 loaded on AMQ sensor, hMer as analyte, 1:1 model, local fit at 5 nM hMer
T1 construct: Analyte in solution in biolayer interferometry; also called hMer
T1 sequence: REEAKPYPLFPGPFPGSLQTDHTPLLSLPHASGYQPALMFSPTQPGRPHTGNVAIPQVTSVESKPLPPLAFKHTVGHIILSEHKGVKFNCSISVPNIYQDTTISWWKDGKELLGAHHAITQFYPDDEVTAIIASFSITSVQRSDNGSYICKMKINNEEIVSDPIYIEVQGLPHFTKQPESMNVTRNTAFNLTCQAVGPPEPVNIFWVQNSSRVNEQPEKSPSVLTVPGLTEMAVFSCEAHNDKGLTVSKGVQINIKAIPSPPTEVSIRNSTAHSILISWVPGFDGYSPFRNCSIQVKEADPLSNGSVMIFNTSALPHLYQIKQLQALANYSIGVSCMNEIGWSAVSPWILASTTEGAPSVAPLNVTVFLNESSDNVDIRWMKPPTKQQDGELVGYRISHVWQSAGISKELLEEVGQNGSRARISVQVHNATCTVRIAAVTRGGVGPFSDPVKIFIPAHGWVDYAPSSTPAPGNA
Protocol: (§1) FIG. 7: M19 binds to human MERTK with high affinity. A diagram showing antibody binding kinetics for M19 (Mer-M19) against human MERTK (hMer) using biolayer interferometry. Purified M19 was loaded on an AMQ sensor at a concentration of 1 microgram/mL to test binding against analytes in solution. All analytes were prepared at 5 nM with a 2-fold dilution series for a total of 7 concentrations. Kinetic fits were calculated using a 1:1 model, with Local fits for each concentration as well as an overall global fit.

recombinant human MERTK [2] = biological target: T1, recombinant human MERTK; assay: biolayer interferometry, M6 loaded on AMQ sensor, hMer as analyte, 1:1 model, local fit at 1.25 nM hMer
Protocol: as §1, with “11: M6 binds to MERTK with high affinity. M6” for “7: M19”, “M6 (Mer-M6)” for “M19 (Mer-M19)”, “M6” for “M19”, “Global” for “global”

Binder	Kd (recombinant human MERTK [1]) [pM]	kon (recombinant human MERTK [1]) [M⁻¹ s⁻¹]	Kd (recombinant human MERTK [2]) [pM]	koff (recombinant human MERTK [2]) [s⁻¹]
antibody M19 (antibody, V domains shown, mouse hybridoma monoclonal antibody; also called Mer-M19) VH: EVQLEESGPDLKKPGETVKISCKASNYTFTDYSMHWVKQAPGKGLKWVGWINTDTGEPTYADDFKGRFAFSLETSASTAYLQINNLKNEDTATYFCARWFGAMDYWGQGTSVTVSS VL: DIVITQSHKFMSTSVGDRVSITCKASQDVTNVVAWYQQKPGQSPKLLIYSASYRYTGVPDRFTGSGSGTDFTFTISSVQAEDLAVYYCQQYYRTPRTFGGGTKLEIKR	248	3.83e+06	–	–
antibody M6 (antibody, V domains shown, mouse hybridoma monoclonal antibody; also called Mer-M6) VH: QVKLEESGPELKKPGETVKISCKASGYTFTNYGMNWVKQAPGKGLKWMGWINTYTGEPTYADDFKGRFVFSLETSASTAYLQINNLKNEDMATYFCARKSTVVSRYFDVWGAGTTVTVSS VL: DIVLTQTHKFMSTSVGDRVSITCKASQDVGDAVTWCQQKPGQPPKLLIYWASTRHTGVPDRFTGSGSGTDFTLTINNVQSEDLADYFCQQYRSYPLTFGAGTKLELKR	–	–	48	0.00015
